# Laboratory results as given in PMC12419008.
# How the values were obtained:
# Assay in all cases: SPR
# [1] = target: APG777 (human (humanized IgG1))
# FcγRI (human) = FcγRI (human) (UniProt P12314)
# FcγRIIIa (F158) (human) = FcγRIIIa (F158) (human) (UniProt P08637)
# FcγRIIIa (V158) (human) = target: FcγRIIIa (V158) (human)
# FcγRIIa (H131) (human) = FcγRIIa (H131) (human) (UniProt P12318)
# FcγRIIa (R131) (human) = target: FcγRIIa (R131) (human)
# FcγRIIb (human) = FcγRIIb (human) (UniProt P31994)
# Chain of UniProt P31994 (P31994 43-217): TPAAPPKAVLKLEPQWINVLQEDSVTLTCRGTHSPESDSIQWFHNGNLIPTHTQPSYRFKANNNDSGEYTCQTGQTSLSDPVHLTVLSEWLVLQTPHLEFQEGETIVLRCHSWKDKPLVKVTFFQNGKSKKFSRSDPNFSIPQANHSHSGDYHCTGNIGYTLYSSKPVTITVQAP
# Chain of UniProt P12314 (P12314 16-292): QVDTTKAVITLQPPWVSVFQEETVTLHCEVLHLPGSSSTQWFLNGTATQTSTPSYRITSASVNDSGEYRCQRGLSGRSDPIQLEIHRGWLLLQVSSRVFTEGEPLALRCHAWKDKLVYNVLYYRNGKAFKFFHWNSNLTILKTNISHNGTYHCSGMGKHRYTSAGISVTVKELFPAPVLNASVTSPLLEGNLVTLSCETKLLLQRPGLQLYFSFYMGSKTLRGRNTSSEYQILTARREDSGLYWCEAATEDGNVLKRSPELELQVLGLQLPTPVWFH
# Chain of FcγRIIIa (V158) (human) (P08637 17-208): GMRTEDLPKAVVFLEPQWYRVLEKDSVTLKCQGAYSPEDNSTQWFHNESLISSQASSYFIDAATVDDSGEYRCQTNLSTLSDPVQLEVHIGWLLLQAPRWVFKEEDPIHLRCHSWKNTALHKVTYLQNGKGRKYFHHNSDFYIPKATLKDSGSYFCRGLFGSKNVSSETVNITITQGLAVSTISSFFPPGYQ
# Chain of FcγRIIa (R131) (human) (P12318 34-217): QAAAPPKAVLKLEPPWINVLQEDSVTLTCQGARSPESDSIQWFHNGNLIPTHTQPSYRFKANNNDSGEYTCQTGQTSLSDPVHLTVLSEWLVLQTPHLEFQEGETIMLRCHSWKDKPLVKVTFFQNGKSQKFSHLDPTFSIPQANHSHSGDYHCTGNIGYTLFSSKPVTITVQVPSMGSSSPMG
Substance,Kd [1] [µM],Kd (FcγRI (human)) [µM],Kd (FcγRIIIa (F158) (human)) [µM],Kd (FcγRIIIa (V158) (human)) [µM],Kd (FcγRIIa (H131) (human)) [µM],Kd (FcγRIIa (R131) (human)) [µM],Kd (FcγRIIb (human)) [µM]
human neonatal Fc receptor (huFcRn) (from UniProt P55899 24-365),0.0944,,,,,,
APG777 (antibody),,7.88,56.2,12.1,,,
rituximab (antibody),,,0.957,0.193,2.93,5.95,15.3
